Two molecules from patent US20160158369A1, “PHARMACEUTICAL COMPOSITION FOR RESPIRATORY ADMINISTRATION” (SEIKAGAKU CORPORATION, priority 2013, published 2016) can be followed below.

A value given as a limit tells only on which side of the number the result lay.

In one data set the test system is OVA sensitized rat model. The data set can be described thus: Dose responsiveness of budesonide alone in OVA sensitized rat model. In kind it is in vivo. Conditions: doses 0.01, 0.1, 1, 10 mg/kg to bronchus 1 hour before 4th and 5th OVA exposure. The method, then: Dose responsiveness of budesonide alone in an OVA sensitized rat model was determined.
There were four doses for determination, i.e., 0.01 mg/kg, 0.1 mg/kg, 1 mg/kg, and 10 mg/kg.
As a test system, a male BN rat was used. For OVA sensitization, 1 mL of Alum containing 1 mg/mL OVA was administered intraperitoneally. After the sensitization, physiological saline containing 10 mg/mL OVA was used for inhalation exposure, 5 times every 24 hours, by using a nebulizer. The test substance was administered to a bronchus 1 hour before the 4th and 5th inhalation exposure of OVA.
On Hour 24 after the final exposure, 2 mL of PBS containing 0.1% BSA (heated to 37° C.) was administered under pentobarbital anesthesia to a bronchus followed by recovery. This procedure was repeated 5 times to give bronchoalveolar lavage fluid (BALF).
BALF was centrifuged for 3 minutes at 200×g and room temperature. The supernatant was discarded, and the pellet was re-suspended in PBS (500 μL, heated to 37° C.) containing 0.1% BSA. Subsequently, a smear sample of the BALF was prepared followed by Diff-Quik staining. According to cell fractionation, ratio of eosinophil in white blood cells was calculated. According to integration with the number of white blood cells in BALF, the number of […] in BALF was calculated (number of white blood cells was measured by using blood cell counting chamber).

A short description of another data set: in vivo. The settings on record: BN/CrlCrlj, rat, in vivo. How it is done: As a test substance, the compound is was used, and it was used after being dissolved in phosphate buffered saline such that the pharmaceutical concentration is 3 mg/mL.
For the test, a BN/CrlCrlj rat (Charles River Laboratories International, Inc., 5-week old) was used. It was placed on its back and fixed under general anesthesia, and by using a sonde for intratracheal administration (MicroSprayer (registered trademark) Aerosolizer Model IA-1B, manufactured by Penn-Century), intratracheal administration was performed with volume of 100 μL. As general anesthesia, inhalation of isoflurane (concentration of 3.0% and flow rate of 2.0 L/min) was employed.
Weight of the pulmonary tissue was measured and, after being added with an aqueous solution of ammonium formic acid (pH 6.0):methanol (3:2, v/v) at ratio of 40× (1 g: 40 mL), it was homogenated for about 1 minute under ice cooling by using a homogenizer. […] Meanwhile, the measurement was made with n=3 for each evaluation time point.
Each parameter of pharmacokinetics was calculated from a change in average content in pulmonary tissue. If there was an animal showing the measurement value of less than the lower limit of quantification, the average content in pulmonary tissue was calculated by substituting the value of 0 (zero) for it. The time t (hr) for calculating AUC0-t was the final time point at which the quantification can be made. Meanwhile, for calculation of the parameters of pharmacokinetics, non-compartmental analysis model analysis by WinNonlin Professional (registered trademark) Ver 5.2.1 was used. […] The results are shown in FIG. 2 and the following table.
The compounds vb obtained from Example 5 was evaluated in the same manner as the method described in (Test example B1) in terms of the persistent property of the pharmaceutical in a pulmonary tissue of a normal rat.
As a comparative control group, budesonide alone in the same amount as the compound vb, and a mixture of budesonide and chondroitin sulfate in the same amount as the compound vb were administered. Meanwhile, in the present measurement system, the lower detection limit of budesonide was 1 ng/mL. Meanwhile, the evaluation time points include three points, i.e., Hour 4, 24, and 72.

For data set [1], the system named is rat antigen-induced asthma model. The data set can be described thus: Rat antigen-induced asthma model, eosinophils in bronchoalveolar lavage fluid. It is filed as in vivo. The method, then:
Intraperitoneal administration of 1 mL of aluminum hydroxide gel containing ovalbumin (1 mg/mL) was performed 3 times with one day interval. 14 Days after performing the first sensitization, intraperitoneal administration of 1 mL of aluminum hydroxide gel containing ovalbumin (1 mg/mL) was performed again followed by the second sensitization. 7 Days after the second sensitization, inhalation exposure of physiological saline (10 mg/mL) containing ovalbumin was performed by using a nebulizer five times with one day interval in order to induce asthma.
The 0.6 mg/mL prednisolone suspension was orally administered by using a sonde for oral administration under no anesthesia to have prednisolone amount of 3 mg/kg.
Meanwhile, the test was performed with n=6 to 12.
24 Hours after the fifth exposure, phosphate buffered saline (2 mL) containing 0.1% bovine serum albumin heated to 37° C. was injected to a bronchus of a rat under pentobarbital anesthesia and collected thereafter. This procedure was repeated 5 times to have bronchoalveolar lavage fluid. The bronchoalveolar lavage fluid was centrifuged for 3 minutes at 200×g and room temperature. The supernatant was discarded, and the pellet was re-suspended in phosphate buffered saline (500 μL) containing 0.1% bovine serum albumin.
Subsequently, a smear sample of the suspension was prepared followed by Diff-Quik staining. According to cell fractionation, ratio of eosinophil in white blood cells was calculated. According to integration with the number of white blood cells in bronchoalveolar lavage fluid, the number of […] in bronchoalveolar lavage fluid was calculated. Meanwhile, the number of white blood cells in bronchoalveolar lavage fluid was measured by using a blood cell counting chamber. The results are shown in FIG. 4 and the following table.
Dose responsiveness of the compound va in an OVA sensitized rat model was determined in the same manner as (Test example B2).
There were three doses for determination, i.e., 0.35 mg/kg, 3.5 mg/kg, and 35 mg/kg, such that the budesonide amount for administration is 0.1 mg/kg, 1 mg/kg, or 10 mg/kg.

Data set [2] has as its system mouse antigen-induced airway hypersensitivity model. The data set can be described thus: Mouse antigen-induced airway hypersensitivity model (AHR, Penh, PC100). It is filed as in vivo. The settings on record: single intratracheal administration 40 μL, 1 week before the evaluation. How it is done:
For the evaluation, BALB/cCrSlc (Japan SLC, Inc., 11-week old) was used. […] Intratracheal administration (volume: 40 μL) of the budesonide suspension, mixture of budesonide and chondroitin sulfate, and an aqueous solution of the compound va was performed by using a glass microsyringe (Ito Micro Syringe, manufactured by ITO SEISAKUSHO CO., LTD.) after fixing the mouse on its back under general anesthesia. […] The administration was performed only once, and it was performed 6 days after the second sensitization. Meanwhile, the test was performed with n=6. Airway hyper responsiveness (AHR) evaluation was performed as described below. On Day 13 after the second sensitization, the mouse was forced to inhale metacholine (hereinbelow, MCh) of 0, 5, 10 and 20 mM, and the airway resistance parameter (Penh) at 3 minutes after the inhalation of metacholine with different concentrations was measured by a device for measuring unrestrained respiratory function (manufactured by Buxco Research System). AUC value of the Penh value was measured, and a graph of MCh concentration vs. AUC was established.

The nature of data set [3]: Drug dissociation test: polysaccharide derivative in buffer solution, 36°C, 1 week, HPLC. In kind it is physicochemical. The method, then: In the examples relating to drug dissociation test, the drug dissociation ratio was evaluated as described below.
Sodium dihydrogen phosphate dihydrate (780 mg (5.0 mmol)) was dissolved in 500 mL of distilled water to give a liquid A. Separately, disodium hydrogen phosphate dodecahydrate (1.79 g (5.0 mmol)) was dissolved in 500 mL of distilled water to give a liquid B. By mixing the liquid A and liquid B at ratio of 2:3, a phosphate buffer solution of pH 7.5 was prepared.
0.62 g (10 mmol) of boric acid and 0.75 g (10 mmol) of potassium chloride were weighed and dissolved in 500 mL of distilled water to give a liquid C. Separately, by diluting 0.1 N sodium hydroxide solution with distilled water (×10 dilution), a liquid D was prepared.
50 mL of the liquid C and 7 mL of the liquid D were added to a 100 mL mess flask, and according to dilution to 100 mL with distilled water, a borate buffer solution of pH 8.0 was prepared. Furthermore, 50 mL of the liquid C and 40 mL of the liquid D were added to a 100 mL mess flask, and according to mess-up to 100 mL with distilled water, a borate buffer solution of pH 9.0 was prepared.
Each polysaccharide derivative obtained from above was dissolved in a buffer solution at each pH so as to have a concentration of 5 mg/10 mL, and heated for 1 week in an incubator at 36° C. Then, the drug dissociation ratio during the incubation was evaluated every 24 hours by liquid chromatography (HPLC).
The evaluation was performed by measuring the ratio between the drug amount remained in a polysaccharide derivative and the dissociated drug amount according to use of a size exclusion chromatography column (manufactured by TOSOH, TSKgel α-6000, 7.8 mmI.D.×30 cm).
Detailed conditions for the liquid chromatography are as follows.
Analysis time: 40 minutes
Solution for elution: acetonitrile (for HPLC):physiological saline=1:2
Detector: UV detector (240 nm)

Data set [4] concerns mouse model having antigen-induced rhinitis. The data set can be described thus: Mouse model having antigen-induced rhinitis, cough number. In kind it is in vivo. Conditions: single intranasal administration 20 μL. The method, then:
As a negative control, phosphate buffered saline was used. As a comparative control, 4 mg/mL budesonide suspension was used. […] From Day 1 after the final nasal cavity sensitization—induction, 20 μL of ovalbumin physiological saline (40 mg/mL) was intranasally administered with 24 hour interval to induce a rhinitis reaction. The induction of the rhinitis reaction was performed 8 times in total for 8 days. […] The phosphate buffered saline, aqueous solution of the compound va, and budesonide suspension were administered only once on the day of inducing initial rhinitis reaction, and 1 hour before administering physiological saline containing ovalbumin. Meanwhile, the test was basically performed with n=6. From the first day to Day 7 after inducing initial rhinitis reaction, number of coughs during 10 minutes after the administration of ovalbumin-containing physiological saline was measured.

Take `CCCC1O[C@@H]2C[C@H]3[C@@H]4CCC5=CC(=O)C=C[C@]5(C)[C@H]4[C@@H](O)C[C@]3(C)[C@]2(C(=O)CO)O1` (some centres unmarked) [budesonide]: the “administration amount at which eosinophil inhibitory activity was shown” value in the data set with OVA sensitized rat model is given as at least 0.1 mg/kg. In the data set “in vivo”, this molecule showed a concentration at 4 h of 471 ng/g, a concentration at 24 h of 0.3 ng/g and a concentration at 72 h of 0.1 ng/g.
In the case of “Chondroitin Sulfate Introduced with 21-β-Alanyl-Budesonide (25 kDa) [Compound va]”, the eosinophil-inhibiting activity entry in data set [1] (0.35 mg/kg (0.1 mg/kg in budesonide amount), 1 week after the administration) was “eosinophil-inhibiting activity was shown”. In addition, the “dose responsiveness of eosinophil-inhibiting activity” value in data set [1] (0.35, 3.5 and 35 mg/kg) is “observed with dose responsiveness”. Also, in data set [2], the “inhibition of enhanced sensitivity to MCh (airway hyper responsiveness, PC100)” value was “inhibited to the level of the control group”. In addition, the “Dissociation ratio (%/day)” value in data set [3] (pH 7.4, 36°C) came out at 0.8 %/day; in data set [3] (pH 8.0, 36°C), 2.5 %/day. Also, the drug dissociation ratio is listed as 0.0% in data set [3] (pH 7.4, 36°C, day 0); 0.4% in data set [3] (pH 7.4, 36°C, day 1); 1.0% in data set [3] (pH 7.4, 36°C, day 2); 1.8% in data set [3] (pH 7.4, 36°C, day 3); 3.1% in data set [3] (pH 7.4, 36°C, day 4); 3.8% in data set [3] (pH 7.4, 36°C, day 5). Also, the drug dissociation ratio in data set [3] (pH 7.4, 36°C, day 6) is 4.4%; in data set [3] (pH 7.4, 36°C, day 7) it was 5.3%; in data set [3] (pH 8.0, 36°C, day 0) it was 0.0%; in data set [3] (pH 8.0, 36°C, day 1) it was 2.3%; in data set [3] (pH 8.0, 36°C, day 2) it was 4.2%; in data set [3] (pH 8.0, 36°C, day 3), 7.7%. Besides, the drug dissociation ratio in data set [3] (pH 8.0, 36°C, day 4) was found to be 10.3%; in data set [3] (pH 8.0, 36°C, day 5) it was 12.8%; in data set [3] (pH 8.0, 36°C, day 6), 14.0%; in data set [3] (pH 8.0, 36°C, day 7) it was 17.5%. For the same molecule, the “change in average cough number Day 1 to Day 7 and total cough number during 8 days” value in data set [4] is recorded as “exhibited an inhibition”.
